US20070059320A1

Biological target: NADH dehydrogenase subunit 2 (ND2), native protein in brain lysates, PSD preparations, hippocampal neurons and tissues (rat) (UniProt P11662)
Test: cell-based or functional assay

NADH dehydrogenase subunit 2 (ND2), native protein in brain lysates, PSD preparations, hippocampal neurons and tissues (rat), sequence (P11662 whole entry): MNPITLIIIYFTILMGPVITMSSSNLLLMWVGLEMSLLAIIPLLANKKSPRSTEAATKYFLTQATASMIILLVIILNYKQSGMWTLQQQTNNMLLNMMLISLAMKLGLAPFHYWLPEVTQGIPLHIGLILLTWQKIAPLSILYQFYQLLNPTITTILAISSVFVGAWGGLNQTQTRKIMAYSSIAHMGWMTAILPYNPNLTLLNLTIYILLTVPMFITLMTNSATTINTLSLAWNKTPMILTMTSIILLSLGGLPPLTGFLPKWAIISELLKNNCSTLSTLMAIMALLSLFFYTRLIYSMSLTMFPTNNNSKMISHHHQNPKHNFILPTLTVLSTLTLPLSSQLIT

For “Src40-58 peptide (amino acid residues 40-58 of SEQ ID NO:4)”, the NMDAR component of mEPSCs (cultured hippocampal neurons, whole-cell recording) was 56%.
